B1: anti-CD47 AlivaMab antibody 139 (antibody, IgG1, V domains shown)
VH: QVQLQESGPGLVKPSETLSLTCTVSGGSISNYYWSWIRQPPGKGLEWIGYIYYSGSTNYNPSLKSRVTISVDTSKNQFSLKLSSVTAADTAVYYCARSRYFDLWGRGTLVTVSS
VL: DIQMTQSPSAMSASVGDRVTITCRASQGISIYLAWFQQKPGKVPKRLIYAASSLQSGVPSRFSGSGSGTEFTLTISSLQPEDFATYYCLQHTSYPYTFGQGTKLEIK
notes: Chimeric AlivaMab Mouse mAb from hybridoma: human V, CH1 and upper hinge, mouse middle hinge, CH2 and CH3, human kappa light chain
B2: anti-CD47 AlivaMab antibody 151 (antibody, IgG1, V domains shown)
VH: QVQLQESGPGLVKPSETLSLTCTVSGGSISSYYWSWIRQPPGKGLEWIGYIYYSGSTNYNPSLKSRVTISVDTSKNQFSLKLSSVTAADTAVYYCARKRKYFDYWGQGTLVTVSS
VL: DIQMTQSPSSLSASVGDRVTITCRASQGISNYLAWYQQKPGKVPKLLIYAASTLQSGVPSRFSGSGSGTDFTLTISSLQPEDVATYYCQKCNSAPFTFGPGTKVDIK
notes: Chimeric AlivaMab Mouse mAb from hybridoma: human V, CH1 and upper hinge, mouse middle hinge, CH2 and CH3, human kappa light chain; also called clone 151; mAb 151

What was measured:
[1] = target: T1, recombinant human CD47 (Novoprotein cat no. C321, lot no. 0329689) (human, UniProt Q08722 19-139); assay: SPR, antibodies binned by kd at 25 C (value is the column's head)
T1 construct: Bought reagent
Procedure: (§1) Binding kinetics were measured at 25° C. using a BioRad ProteOn XPR36 optical biosensor equipped with GLM sensor chips and equilibrated with running buffer (HBS, 0.005% TWEEN-20, 0.1 mg/mL BSA, pH 7.4).
(§2) CD47 was tested in a three-fold dilution series starting at 100 nM.

[2] = target: T1, recombinant human CD47 (Novoprotein cat …); assay: SPR summary table, 25 C; dissociation rate constant fixed at 1e-5 s^-1; summary table; kd fixed at 1e-5
Procedure: (§3) Affinity was determined for five selected AlivaMab Mouse monoclonal hybridoma supernatants (Biosensor Tools, Salt Lake City, Utah). Binding kinetics were measured at 25° C. using a BioRad ProteOn XPR36 optical biosensor equipped with GLM sensor chips and equilibrated with running buffer (HBS, 0.005% TWEEN-20, 0.1 mg/mL BSA, pH 7.4).
as §2

[3] = target: T1, recombinant human CD47 (Novoprotein cat …); assay: SPR summary table, 25 C
Procedure: as §1, §2

[4] = target: T1, recombinant human CD47 (Novoprotein cat …); assay: SPR (ProteOn XPR36), mAb captured on anti-mouse Fc, CD47 as analyte, 25 C; no decay detected, kd fixed at 1e-5 in the fit; no decay seen; kd fixed at 1e-5 in the fit
Procedure: as §3, §2

[5] = target: T1, recombinant human CD47 (Novoprotein cat …); assay: SPR (ProteOn XPR36), mAb captured on anti-mouse Fc, CD47 as analyte, 25 C; kd fixed, KD a rough estimate
Procedure: as §3, §2

[6] = target: T2, recombinant CD47-Fc (Sino Biologics) (human, UniProt Q08722 19-139); assay: competition ELISA: HIS-tagged SIRP α binding to plate-bound CD47-Fc, antibody titrated
T2 construct: Bought reagent; also called human CD47-Fc; not shown: Fc

[7] = target: T1, recombinant human CD47 (Novoprotein cat …); assay: SPR (ProteOn XPR36), mAb captured on anti-mouse Fc, CD47 as analyte, 25 C, 1:1 model
Procedure: as §1, §2

[8] = target: T1, recombinant human CD47 (Novoprotein cat …); assay: SPR summary table, 25 C; kd fixed
Procedure: as §3, §2

Row | Binder | koff [1] [s⁻¹] | koff [2] [s⁻¹] | kon [3] [M⁻¹ s⁻¹] | koff [4] [s⁻¹] | Kd [5] [nM] | IC50 [6] [nM] | kon [7] [M⁻¹ s⁻¹] | Kd [8] [nM] | Kd [3] [nM] | koff [3] [s⁻¹] | Kd [7] [nM] | koff [7] [s⁻¹]
1 | B1 | ≤ 1e-05 | ≤ 1e-05 | 1.18e+06 | ≤ 1e-05 | ≤ 0.0085 | 2.2 | 1.18e+06 | ~0.009 |  |  |  | 
2 | B2 | ~0.01 |  | 8.7e+06 |  |  | 2 | 8.7e+06 |  | 1 | 0.0089 | 1 | 0.0089

Reference: US20220267440A1 (ABSOS, published 2022)
